Test results reported in the supplement of paper PMC10201428.
± gives the standard deviation of the averaged measurements.

Columns and labels:
[1] = system: VchCAST RNA-guided transposition machinery (E. coli BL21(DE3) host, lacZ target); experiment: relative integration efficiency (T-RL orientation) vs wild-type transposon end (log2 (normalized fold change)); transposon end mutated: right end (5 bp flank + 75 bp right end); higher = more efficient transposition
Procedure, shortened: (§1)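 Barcoded pools of 1549 left-end or 1849 right-end transposon variants were cloned into a pUC57 mini-transposon donor. Each pool was co-transformed with a T7-driven effector plasmid (CRISPR array, tniQ-cas8-cas7-cas6, tnsA-tnsB-tnsC) into E. coli BL21(DE3) and plated with 0.1 mM IPTG at 37°C for 18 h. Input plasmids and genomic integration junctions were PCR-amplified and Illumina-sequenced, with two biological output replicates and four wild-type barcodes as reference. Relative integration efficiency is output/input barcode abundance fold change, normalised to wild-type barcodes and log-transformed.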

[2] = system: VchCAST RNA-guided transposition machinery (E. coli BL21(DE3) host, lacZ target); experiment: relative integration efficiency (T-LR orientation) vs wild-type transposon end (log2 (normalized fold change)); transposon end mutated: right end (5 bp flank + 75 bp right end); higher = more efficient transposition
Procedure, shortened: as §1

Row | Sequence | relative integration efficiency (log2) [1] | relative integration efficiency (log2) [2]
1 | ACATTTGTTGATACAACCATATATTGATATCTCCAACCATAAAATGATAATTATCACAACCATAAAATGATAATTACTCTGATCATAGTCAGACCAACATTGCTACGACCCGTATTCGCACCGACAC | -0.172 ± 0.01 | -0.314 ± 0.062
2 | ACATTTGTTGATACAACCATATATTGATATCTCCAACCATAAAATGATAATTATCACAACCATAAAGTGATATTTACTCTGATCATAGTCAGACCAACATTGCTACGACCCGTATTCGCACCGACAC | -0.115 ± 0.074 | -0.441 ± 0.36
3 | ACATTTGTTGATACAACCATATATTGATATCTCCAACCATAAAATGATAATTATCACAACCATAAGTTGATATTTTCTCTGATCATAGTCAGACCAACATTGCTACGACCCGTATTCGCACCGACAC | -0.491 ± 0.098 | -0.357 ± 0.16
4 | ACATTTGTTGATACAACCATATATTGATATCTCCAACCATAAAATGATAATTATCACAACCATATATTGATATCTCCTCTGATCATAGTCAGACCAACATTGCTACGACCCGTATTCGCACCGACAC | -0.5854 ± 0.0047 | -0.283 ± 0.24
5 | ACATTTGTTGATACAACCATATATTGATATCTCCAACCATAAAATGATAATTATCACACCCATAAATTGATAATTACTCTGATCATAGTCAGACCAACATTGCTACGACCCGTATTCGCACCGACAC | -0.0947 ± 0.0052 | -0.0737 ± 0.099
6 | ACATTTGTTGATACAACCATATATTGATATCTCCAACCATAAAATGATAATTATCACACCCATAAATTGATATTGCCTCTGATCATAGTCAGACCAACATTGCTACGACCCGTATTCGCACCGACAC | -0.212 ± 0.018 | -0.381 ± 0.023
7 | ACATTTGTTGATACAACCATATATTGATATCTCCAACCATAAAATGATAATTATCAGTGGGTATTTAACTATAACGCTCTGATCATAGTCAGACCAACATTGCTACGACCCGTATTCGCACCGACAC | -1.15 ± 0.24 | 2.32 ± 0.29
8 | ACATTTGTTGATACAACCATATATTGATATCTCCAACCATAAAGTGATATTTATCACAACCATAAAATGATAATTACTCTGATCATAGTCAGACCAACATTGCTACGACCCGTATTCGCACCGACAC | -0.716 ± 0.2 | -0.762 ± 0.065
9 | ACATTTGTTGATACAACCATATATTGATATCTCCAACCATAAAGTGATATTTATCACAACCATAAAGTGATATTTACTCTGATCATAGTCAGACCAACATTGCTACGACCCGTATTCGCACCGACAC | -0.409 ± 0.1 | -0.451 ± 0.11
10 | ACATTTGTTGATACAACCATATATTGATATCTCCAACCATAAAGTGATATTTATCACAACCATAAGTTGATATTTTCTCTGATCATAGTCAGACCAACATTGCTACGACCCGTATTCGCACCGACAC | 0.261 ± 0.2 | 0.0054 ± 0.55
11 | ACATTTGTTGATACAACCATATATTGATATCTCCAACCATAAAGTGATATTTATCACAACCATATATTGATATCTCCTCTGATCATAGTCAGACCAACATTGCTACGACCCGTATTCGCACCGACAC | -0.515 ± 0.17 | -0.237 ± 0.36
12 | ACATTTGTTGATACAACCATATATTGATATCTCCAACCATAAAGTGATATTTATCACACCCATAAATTGATAATTACTCTGATCATAGTCAGACCAACATTGCTACGACCCGTATTCGCACCGACAC | -0.578 ± 0.023 | -0.426 ± 0.18
13 | ACATTTGTTGATACAACCATATATTGATATCTCCAACCATAAAGTGATATTTATCACACCCATAAATTGATATTGCCTCTGATCATAGTCAGACCAACATTGCTACGACCCGTATTCGCACCGACAC | -0.42 ± 0.096 | -0.302 ± 0.25
14 | ACATTTGTTGATACAACCATATATTGATATCTCCAACCATAAAGTGATATTTATCAGTGGGTATTTAACTATAACGCTCTGATCATAGTCAGACCAACATTGCTACGACCCGTATTCGCACCGACAC | -0.927 ± 0.29 | 2.59 ± 0.059
15 | ACATTTGTTGATACAACCATATATTGATATCTCCAACCATAAGTTGATATTTTTCACAACCATAAAATGATAATTACTCTGATCATAGTCAGACCAACATTGCTACGACCCGTATTCGCACCGACAC | -0.279 ± 0.084 | -0.448 ± 0.2
16 | ACATTTGTTGATACAACCATATATTGATATCTCCAACCATAAGTTGATATTTTTCACAACCATAAAGTGATATTTACTCTGATCATAGTCAGACCAACATTGCTACGACCCGTATTCGCACCGACAC | -0.225 ± 0.017 | -0.0291 ± 0.26
17 | ACATTTGTTGATACAACCATATATTGATATCTCCAACCATAAGTTGATATTTTTCACAACCATAAGTTGATATTTTCTCTGATCATAGTCAGACCAACATTGCTACGACCCGTATTCGCACCGACAC | -0.0557 ± 0.027 | -0.31 ± 0.26
18 | ACATTTGTTGATACAACCATATATTGATATCTCCAACCATAAGTTGATATTTTTCACAACCATATATTGATATCTCCTCTGATCATAGTCAGACCAACATTGCTACGACCCGTATTCGCACCGACAC | -0.17 ± 0.037 | 0.0875 ± 0.82

Row | Sequence | relative integration efficiency (log2) [1] | relative integration efficiency (log2) [2]
19 | ACATTTGTTGATACAACCATATATTGATATCTCCAACCATAAGTTGATATTTTTCACACCCATAAATTGATAATTACTCTGATCATAGTCAGACCAACATTGCTACGACCCGTATTCGCACCGACAC | -0.491 ± 0.17 | 0.109 ± 0.44
20 | ACATTTGTTGATACAACCATATATTGATATCTCCAACCATAAGTTGATATTTTTCACACCCATAAATTGATATTGCCTCTGATCATAGTCAGACCAACATTGCTACGACCCGTATTCGCACCGACAC | -0.335 ± 0.081 | -0.216 ± 0.018
21 | ACATTTGTTGATACAACCATATATTGATATCTCCAACCATAAGTTGATATTTTTCAGTGGGTATTTAACTATAACGCTCTGATCATAGTCAGACCAACATTGCTACGACCCGTATTCGCACCGACAC | -0.859 ± 0.26 | 2.468 ± 0.015
22 | ACATTTGTTGATACAACCATATATTGATATCTCCAACCATATATTGATATCTCTCACAACCATAAAATGATAATTACTCTGATCATAGTCAGACCAACATTGCTACGACCCGTATTCGCACCGACAC | -0.562 ± 0.043 | -0.08 ± 0.5
23 | ACATTTGTTGATACAACCATATATTGATATCTCCAACCATATATTGATATCTCTCACAACCATAAAGTGATATTTACTCTGATCATAGTCAGACCAACATTGCTACGACCCGTATTCGCACCGACAC | -0.452 ± 0.1 | 0.0811 ± 0.2
24 | ACATTTGTTGATACAACCATATATTGATATCTCCAACCATATATTGATATCTCTCACAACCATAAGTTGATATTTTCTCTGATCATAGTCAGACCAACATTGCTACGACCCGTATTCGCACCGACAC | -0.571 ± 0.19 | -0.0341 ± 0.43
25 | ACATTTGTTGATACAACCATATATTGATATCTCCAACCATATATTGATATCTCTCACAACCATATATTGATATCTCCTCTGATCATAGTCAGACCAACATTGCTACGACCCGTATTCGCACCGACAC | -0.859 ± 0.14 | -0.402 ± 0.094
26 | ACATTTGTTGATACAACCATATATTGATATCTCCAACCATATATTGATATCTCTCACACCCATAAATTGATAATTACTCTGATCATAGTCAGACCAACATTGCTACGACCCGTATTCGCACCGACAC | -0.357 ± 0.067 | 0.23 ± 0.045
27 | ACATTTGTTGATACAACCATATATTGATATCTCCAACCATATATTGATATCTCTCACACCCATAAATTGATATTGCCTCTGATCATAGTCAGACCAACATTGCTACGACCCGTATTCGCACCGACAC | -0.682 ± 0.15 | -0.162 ± 0.005
28 | ACATTTGTTGATACAACCATATATTGATATCTCCAACCATATATTGATATCTCTCAGTGGGTATTTAACTATAACGCTCTGATCATAGTCAGACCAACATTGCTACGACCCGTATTCGCACCGACAC | -1.48 ± 0.31 | 2.41 ± 0.14
29 | ACATTTGTTGATACAACCATATATTGATATCTCCACCCATAAATTGATAATTATCACAACCATAAAATGATAATTACTCTGATCATAGTCAGACCAACATTGCTACGACCCGTATTCGCACCGACAC | -0.253 ± 0.0069 | -0.483 ± 0.35
30 | ACATTTGTTGATACAACCATATATTGATATCTCCACCCATAAATTGATAATTATCACAACCATAAAGTGATATTTACTCTGATCATAGTCAGACCAACATTGCTACGACCCGTATTCGCACCGACAC | -0.345 ± 0.0079 | -0.378 ± 0.45
31 | ACATTTGTTGATACAACCATATATTGATATCTCCACCCATAAATTGATAATTATCACAACCATAAGTTGATATTTTCTCTGATCATAGTCAGACCAACATTGCTACGACCCGTATTCGCACCGACAC | -0.316 ± 0.1 | 0.056 ± 0.33
32 | ACATTTGTTGATACAACCATATATTGATATCTCCACCCATAAATTGATAATTATCACAACCATATATTGATATCTCCTCTGATCATAGTCAGACCAACATTGCTACGACCCGTATTCGCACCGACAC | -0.13 ± 0.1 | -0.00761 ± 0.26
33 | ACATTTGTTGATACAACCATATATTGATATCTCCACCCATAAATTGATAATTATCACACCCATAAATTGATAATTACTCTGATCATAGTCAGACCAACATTGCTACGACCCGTATTCGCACCGACAC | -0.315 ± 0.0034 | -0.06 ± 0.4
34 | ACATTTGTTGATACAACCATATATTGATATCTCCACCCATAAATTGATAATTATCACACCCATAAATTGATATTGCCTCTGATCATAGTCAGACCAACATTGCTACGACCCGTATTCGCACCGACAC | -0.348 ± 0.03 | -0.187 ± 0.16
35 | ACATTTGTTGATACAACCATATATTGATATCTCCACCCATAAATTGATAATTATCAGTGGGTATTTAACTATAACGCTCTGATCATAGTCAGACCAACATTGCTACGACCCGTATTCGCACCGACAC | -1.01 ± 0.15 | 2.29 ± 0.021
